Target: arginine vasopressin (AVP) (Homo sapiens), P01185
Assay: competition

Sequence of arginine vasopressin (AVP) (Homo sapiens), P01185 (P01185 whole entry, looked up): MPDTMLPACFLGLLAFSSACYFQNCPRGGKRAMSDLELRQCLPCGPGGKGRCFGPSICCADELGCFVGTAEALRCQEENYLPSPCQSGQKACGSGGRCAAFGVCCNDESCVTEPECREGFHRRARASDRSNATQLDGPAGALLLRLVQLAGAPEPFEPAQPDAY

Kd: 2.98 nM
B1: V1A receptor, P37288 (protein)
chain: MRLSAGPDAGPSGNSSPWWPLATGAGNTSREAEALGEGNGPPRDVRNEELAKLEIAVLAVTFAVAVLGNSSVLLALHRTPRKTSRMHLFIRHLSLADLAVAFFQVLPQMCWDITYRFRGPDWLCRVVKHLQVFGMFASAYMLVVMTADRYIAVCHPLKTLQQPARRSRLMIAAAWVLSFVLSTPQYFVFSMIEVNNVTKARDCWATFIQPWGSRAYVTWMTGGIFVAPVVILGTCYGFICYNIWCNVRGKTASRQSKGAEQAGVAFQKGFLLAPCVSSVKSISRAKIRTVKMTFVIVTAYIVCWAPFFIIQMWSVWDPMSVWTESENPTITITALLGSLNSCCNPWIYMFFSGHLLQDCVQSFPCCQNMKEKFNKEDTDSMSRRQTFYSNNRSPTNSTGMWKDSPKSSKSIKFIPVST

— paper PMC2362091, “Expression of V1A and GRP receptors leads to cellular transformation and increased sensitivity to substance-P analogue-induced growth inhibition” (British Journal of Cancer, 2005)
